In article PMC6233222, “Structure and oligomerization of the periplasmic domain of GspL from the type II secretion system of Pseudomonas aeruginosa” (Scientific Reports, 2018):

How the values were obtained:
[1] = biological target: the molecule itself; experiment: crystal structure; crystal form 1, space group I4(1)22, 2.5 Å; dimer generated by a crystallographic 2-fold axis; sample from the LEP, sitting drop vapor diffusion at 20 °C
[2] = biological target: the molecule itself; experiment: SEC-SAXS; early elution peak of GspL^peri, 9.0 mg/ml injected; Bio SEC-3 column, SWING beamline
[3] = biological target: the molecule itself; experiment: SEC-MALLS; early elution peak (EEP) of GspL^peri, one hour after purification and after concentration; Superdex 200 increase in 50 mM TRIS pH 7.5, 100 mM NaCl; tetramer converts irreversibly into dimers
[4] = biological target: the molecule itself; experiment: SEC-SAXS; late elution peak of GspL^peri, 13.7 mg/ml injected; Bio SEC-3 column, SWING beamline
[5] = biological target: the molecule itself; experiment: SEC-MALLS; GspL^fld made by incubation of GspL^peri in crystallization conditions over 48 hours and purified by SEC (absorbance at 220 nm)

B1: GspL^fld, the crystallized proteolytic product of GspL^peri (ferredoxin-like domain of GspL) (domain or fragment)
chain: RAQFDQHLADSASSGGEGQLLGLLGQAATVIGGEPTVSVEQLDFSAARGDVALQVRAPGFDVLERLRSRLSESGLAVQLGSASRDGSTVSARLVIGG
notes: GspL (XcpY), P. aeruginosa PAO1; proteolytic product of the construct 261-382 with the new N-terminus at residue 286 (Edman degradation); the C-terminal limit 382 is that of the parent construct; The protease is not identified; the N-terminal Strep-tag is lost with the N-terminal part of the MPD; also called Gsp^fld; crystal form 1; source: E. coli BL21 (DE3), purified GspL^peri (late elution …)
With B1 the “stoichiometry N” value [1] was 2.

B2: GspL^peri, the complete periplasmic segment of general secretory pathway protein L (GspL) from Pseudomonas aeruginosa (domain or fragment)
chain: GDRYAAQSAELYRQLFPEDRKLINLRAQFDQHLADSASSGGEGQLLGLLGQAATVIGGEPTVSVEQLDFSAARGDVALQVRAPGFDVLERLRSRLSESGLAVQLGSASRDGSTVSARLVIGG
notes: membrane proximal domain (MPD), short linker and ferredoxin-like domain (FLD); calculated mass of the construct 13.95 kDa; No step that removes the tag is described; also called XcpY (periplasmic segment); EEP and LEP material; source: E. coli BL21 (DE3), purified (Strep-tactin, SEC on Superdex 75); not shown: Strep-tag, N-terminal, kept
For B2, the “stoichiometry N” value [2] was 4, the “tetramer to dimer ratio of peak areas, higher concentration” value [3] was 0.57 and the “tetramer to dimer ratio of peak areas, lower concentration” value [3] was 0.7. The “stoichiometry N” value [4] was 2.

B3: GspL^fld purified from GspL^peri that was incubated in crystallization conditions over 48 hours (domain or fragment)
chain: DSASSGGEGQLLGLLGQAATVIGGEPTVSVEQLDFSAARGDVALQVRAPGFDVLERLRSRLSESGLAVQLGSASRDGSTVSARLVIGG
notes: GspL (XcpY), P. aeruginosa PAO1; mixture of two proteolytic variants of the construct 261-382 that start at residues 286 and 295 (Edman degradation), the shorter one (from 295) predominant; the C-terminal limit 382 is that of the parent construct; The sample is a mixture of 295-382 (predominant) and 286-382; also called GspL^fld (in solution); 10 kDa band; source: E. coli BL21 (DE3), purified …
B3 was tested, and the “stoichiometry N” value [5] was 2.
